Patent publication US20140107188, “USE OF HGMA-TARGETED PHOSPHOROTHIOATE DNA APTAMERS TO SUPPRESS CARCINOGENIC ACTIVITY AND INCREASE SENSITIVITY TO CHEMOTHERAPY AGENTS IN HUMAN CANCER CELLS” (Miami University, published 2014)

B1: ATs10 (dsDNA)
DNA 1: GGGTTTTTTTTTTCGCGGCGGCCCCGCG
DNA 2: CGCGGGGCCGCCGCGAAAAAAAAAACCC
modifications: PS at the T10 tract linkages of the printed strand (GGGT*T*T*T*T*T*T*T*T*T*CGCG..); complementary strand unmodified
B2: Mix10 (dsDNA)
DNA 1: GGGCGTGACTGAGCGCGGCGGCCCCGCG
DNA 2: CGCGGGGCCGCCGCGCTCAGTCACGCCC
B3: CG10 (dsDNA)
DNA 1: GGGCCCCCCCCCCCGCGGCGGCCCCGCG
DNA 2: CGCGGGGCCGCCGCGGGGGGGGGGGCCC
B4: ATf10 (dsDNA)
DNA 1: CGCGGGGCCGCCGCGAAAAAAAAAAACCC
DNA 2: GGGTTTTTTTTTTTCGCGGCGGCCCCGCG

Tests used:
HMGA1b (full length) [1] = biological target: T1, HMGA1b (full length) (UniProt P17096-2 P17096-2:1-96); test: competition; about half of ATf10 displaced at 1:1 ATf10:ATs10; similar affinity to unmodified DNA; settings: tags: expressed from pET-30b in E. coli BL21(DE3); TCA precipitation and Sephadex G-25
T1 sequence (P17096 other isoform, or with tags, fused parts or gaps): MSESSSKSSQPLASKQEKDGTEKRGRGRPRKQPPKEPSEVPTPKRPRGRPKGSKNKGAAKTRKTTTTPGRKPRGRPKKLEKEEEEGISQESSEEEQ
Procedure: (§1) The HMGA protein samples were prepared in 25 mM Tris-HCl (pH 6.5), 50 mM NaCl, and the concentrations determined based on UV […] absorbance (ε=38,200 mol-1 cm-1). […] Nature structural biology 4 (1997) 657-665, the disclosure of which is incorporated herein by reference in its entirety and incubated at 4° C. for 15 minutes prior to gel analysis. The protein-DNA complexes were resolved on a 7.5% polyacrylmide gel and run with TAE buffer at 20 mA for 2-3 hours at 4° C. The DNA was detected at 495 nm using the VersaDoc™ Imaging System Model 3000 from BIO-RAD Laboratories, Inc. of Hercules, Calif. (USA). The gels were further stained with coomassie blue and visualized by an AlphaImager (Alpha Innotech, San Leandro, Calif.).

HMGA1b (full length) [2] = biological target: T1, HMGA1b (full length); test: competition; equal amount did not interfere with HMGA1-ATf10 complex; 1:1 ATf10:HMGA1; settings: tags: expressed from pET-30b in E. coli BL21(DE3); TCA precipitation and Sephadex G-25
Procedure: as §1

HMGA1b (full length) [3] = biological target: T1, HMGA1b (full length); test: EMSA; nearly completely shifted at DNA:HMGA1 1:1.5; 25 mM Tris-HCl pH 6.5, 50 mM NaCl, 4 C; settings: tags: expressed from pET-30b in E. coli BL21(DE3); TCA precipitation and Sephadex G-25; label: 5'-6-FAM
Procedure: as §1

Binder	binding result (HMGA1b (full length) [2])	also measured
B1		binding signal (HMGA1b (full length) [1]): ~1 fold affinity vs ATf10
B2	no binding	
B3	no binding	
B4		binding result (HMGA1b (full length) [3]): binds
